T1: murine Tissue Factor in murine brain extracts (murine, UniProt P20352 29-294)
T1 sequence (looked up): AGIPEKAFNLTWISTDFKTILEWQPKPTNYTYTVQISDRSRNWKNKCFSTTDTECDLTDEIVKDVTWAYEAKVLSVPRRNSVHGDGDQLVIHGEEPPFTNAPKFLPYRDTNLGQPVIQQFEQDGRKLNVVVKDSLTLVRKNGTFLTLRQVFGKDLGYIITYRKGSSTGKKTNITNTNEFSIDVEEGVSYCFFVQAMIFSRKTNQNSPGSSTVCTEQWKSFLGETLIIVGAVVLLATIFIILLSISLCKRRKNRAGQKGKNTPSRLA

T2: murine Tissue Factor on B6F10 melanoma cells (murine, UniProt P20352 29-294)
T2 construct: whole, on cells; also called cell-associated mTF
T2 sequence (looked up): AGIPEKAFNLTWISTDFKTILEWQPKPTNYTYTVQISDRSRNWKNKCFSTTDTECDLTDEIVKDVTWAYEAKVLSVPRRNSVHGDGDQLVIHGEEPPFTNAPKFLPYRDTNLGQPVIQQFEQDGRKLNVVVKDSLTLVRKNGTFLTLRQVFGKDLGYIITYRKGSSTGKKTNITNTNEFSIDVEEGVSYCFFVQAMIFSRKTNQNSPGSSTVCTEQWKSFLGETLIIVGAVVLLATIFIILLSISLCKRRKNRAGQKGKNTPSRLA


Experiments:
[1] = biological target: T1, murine Tissue Factor in murine brain …; experiment: cell-based or functional assay
[2] = biological target: T2, murine Tissue Factor on B6F10 melanoma …; experiment: FACS on B6F10 melanoma cells that express mTF

Binder	EC50 Conc. (ug/ml), inhibition of fibrin clot formation in human plasma [1]	EC50 [2]
PHD104 Fab (Fab, V domains shown) VH: QVQLVQSGAEVKKPGESLKISCKGSYSFTSNWIGWVRQMPGKGLEWMGWIYPSDSMTRYSPSFQGQVTISADKSISTAYLQWSSLKASDTAMYYCARYLFGLFDNWGQGTLVTVSS VL: DIELTQPPSVSVAPGQTARISCSGDNLGSYYVSWYQQKPGQAPVLVIYNDNNRPSGIPERFSGSNSGNTATLTISGTQAEDEADYYCATYDSSTDVFGGGTKLTVLG	23.8 µg/mL	–
PHD127 Fab (Fab, V domains shown, Human HuCAL Fab; 8 (VH) and 9 (VL) for PHD127 are inferred from the order of the words and must be checked against the listing) VH: QVQLVQSGAEVKKPGESLKISCKGSYSFTNSWISWVRQMPGKGLEWMGIIDPDDSYTSYSPSFQGQVTISADKSISTAYLQWSSLKASDTAMYYCARGAGYGRMFGDVWGQGTLVTVSS VL: DIELTQPPSVSVAPGQTARISCSGDNLGSYYASWYQQKPGQAPVLVIYQDDNRPSGIPERFSGSNSGNTATLTISGTQAEDEADYYCGAYTYSTSWVFGGGTKLTVLG	0.82 µg/mL	4.35 nM
PHD126 Fab (Fab, V domains shown) VH: QVQLVQSGAEVKKPGESLKISCKGSYSFSNYWIGWVRQMPGKGLEWMGFIDPDDSDTNYSPSFQGQVTISADKSISTAYLQWSSLKASDTAMYYCARALYMQGGSFDSWGQGTLVTVSS VL: DIELTQPPSVSVAPGQTARISCSGDNLGSYYVSWYQQKPGQAPVLVIYRDTDRPSGIPERFSGSNSGNTATLTISGTQAEDEADYYCQSYDYGVSNQVFGGGTKLTVLG	0.23 µg/mL	–
PHD103 Fab (Fab, V domains shown) VH: QVQLVQSGAEVKKPGESLKISCKGSGYSFSNSWIAWVRQMPGKGLEWMGGIIGPGHSYTKYSPSFQGQVTISADKSISTAYLQWSSLKASDTAMYYCARINMGYFDYWGQGTLVTVSS VL: DIELTQPPSVSVAPGQTARISCSGDSLGLKKFVSWYQQKPGQAPVLVIYDDSNRPSGIPERFSGSNSGNTATLTISGTQAEDEADYYCGTYDQTIGHDVVFGGGTKLTVLG	63.3 µg/mL	–

Source: patent publication EP1747015B1 (Janssen Biotech, Inc., dated 2012)
